Test results reported in patent publication US20230072640A1 (published 2023).

B1: human monoclonal antibody YFV-121 (antibody, V domains shown)
VH: EVQLVESGGGLVQPGGSLRLSCAASGFTFSSYSMNWVRQAPGKGLEWVSYISSSSRTIYYADSVKGRFTISRDNAKNSLDLQMNSLRDEDTAVYYCAREVSSHGYRYWGQGTLVTVSS
VL: EIVLTQSPATLSLSPGERATLSCRASQSVSSFLAWYQQKPGQAPRLLIYDASNRATGIPARFTGSGSGTDFTLTISSLEPEDFAVYYCQQRSNWPPWTFGQGTKVEIK
B2: human monoclonal antibody YFV-136 (antibody, V domains shown)
VH: QVQLQESGPGLVKPSGTLSLTCAVSGGSISSSNWWSWVRQPPGKGLEWIGDIYHSGSTSYNPSLKSRVTISVDRSKNQFSLKLSSVTAADTAVYYCARAPLVNWYYFDYWGQGTLVTVSS
VL: QSVLTQPPSVSAAPGQKVTISCSGSSSNIGNNYVSWYQQLPGTAPKLLIYDNNKGPSGIPDRFSGSKSGTSATLGITGLQTGDEADYYCGTWDTSLSAGRVFGGGTKLTVL

Target: recombinant YFV E protein (Meridian Life Science) (Yellow fever virus, UniProt P03314 286-679)
Assay: ELISA

Sequence of recombinant YFV E protein (Meridian Life Science) (P03314 286-679): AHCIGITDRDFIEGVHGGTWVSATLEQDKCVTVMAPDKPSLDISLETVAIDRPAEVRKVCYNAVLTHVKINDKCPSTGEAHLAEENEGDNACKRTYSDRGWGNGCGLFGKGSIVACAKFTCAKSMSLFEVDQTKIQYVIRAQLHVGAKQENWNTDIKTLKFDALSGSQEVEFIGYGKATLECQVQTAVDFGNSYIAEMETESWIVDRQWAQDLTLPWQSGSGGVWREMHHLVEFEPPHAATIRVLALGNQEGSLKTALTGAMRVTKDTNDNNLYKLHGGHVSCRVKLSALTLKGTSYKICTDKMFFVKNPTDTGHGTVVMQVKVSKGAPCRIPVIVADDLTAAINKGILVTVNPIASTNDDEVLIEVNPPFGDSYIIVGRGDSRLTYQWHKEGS

Row | Binder | EC50
1 | B1 | 0.311 µg/mL
2 | B2 | 0.27 µg/mL
